Reference: the supplement of paper PMC12458215
± gives the uncertainty stated by the source.

Tested on: HEK293T
Test: plasma membrane surface immunostaining intensity (anti-HA, deep receptor scanning) (arbitrary fluorescence units); higher = higher plasma membrane expression

Row | Sequence | plasma membrane surface immunostaining intensity (GPCR class: A) | also measured
1 | MNDDGKVNASSEGYFILVGFSNWPHLEVVIFVVVLIFYLMTLIGNLFIIILSYLDSHLHTPMYFFLSNLSFLDLCYTTSSIPQLLVNLWGPEKTISYAGCMIQLYFVLALGTTECVLLVVMSYDRYAAVCRPLHYTVLMHPRFCHLLAVASWVSGFTNSALHSSFTFWVPLCGHRQVDHFFCEVPALLRLSCVDTHVNELTLMITSSIFVLIPLILILTSYGAIVRAVLRMQSTTGLQKVFGTCGAHLMAVSLFFIPAMCIYLQPPSGNSQDQGKFIALFYTVVTPSLNPLIYTLRNKVVRGAVKRLMGWE [OR2J3] |  | plasma membrane surface immunostaining intensity (GPCR class: A (Olfactory)): 184 ± 45
2 | MNECHYDKHMDFFYNRSNTDTVDDWTGTKLVIVLCVGTFFCLFIFFSNSLVIAAVIKNRKFHFPFYYLLANLAAADFFAGIAYVFLMFNTGPVSKTLTVNRWFLRQGLLDSSLTASLTNLLVIAVERHMSIMRMRVHSNLTKKRVTLLILLVWAIAIFMGAVPTLGWNCLCNISACSSLAPIYSRSYLVFWTVSNLMAFLIMVVVYLRIYVYVKRKTNVLSPHTSGSISRRRTPMKLMKTVMTVLGAFVVCWTPGLVVLLLDGLNCRQCGVQHVKRWFLLLALLNSVVNPIIYSYKDEDMYGTMKKMICCFSQENPERRPSRIPSTVLSRSDTGSQYIEDSISQGAVCNKSTS [LPAR3] | 5905 ± 32 | 
3 | MNEDLKVNLSGLPRDYLDAAAAENISAAVSSRVPAVEPEPELVVNPWDIVLCTSGTLISCENAIVVLIIFHNPSLRAPMFLLIGSLALADLLAGIGLITNFVFAYLLQSEATKLVTIGLIVASFSASVCSLLAITVDRYLSLYYALTYHSERTVTFTYVMLVMLWGTSICLGLLPVMGWNCLRDESTCSVVRPLTKNNAAILSVSFLFMFALMLQLYIQICKIVMRHAHQIALQHHFLATSHYVTTRKGVSTLAIILGTFAACWMPFTLYSLIADYTYPSIYTYATLLPATYNSIINPVIYAFRNQEIQKALCLICCGCIPSSLAQRARSPSDV [GPR12] | 1260 ± 200 | 
4 | MNGDHMVLGSSVTDKKAIILVTILLLLRLVAIAGNGFITAALGVEWVLRRMLLPCDKLLVSLGASRFCLQSVVMGKTIYVFLHPMAFPYNPVLQFLAFQWDFLNAATLWSSTWLSVFYCVKIATFTHPVFFWLKHKLSGWLPWMLFSSVGLSSFTTILFFIGNHRMYQNYLRNHLQPWNVTGDSIRSYCEKFYLFPLKMITWTMPTAVFFICMILLITSLGRHRKKALLTTSGFREPSVQAHIKALLALLSFAMLFISYFLSLVFSAAGIFPPLDFKFWVWESVIYLCAAVHPIILLFSNCRLRAVLKSRRSSRCGTP [TAS2R60] |  | plasma membrane surface immunostaining intensity (GPCR class: Taste): 137 ± 36
5 | MNPDLDTGHNTSAPAHWGELKNANFTGPNQTSSNSTLPQLDITRAISVGLVLGAFILFAIVGNILVILSVACNRHLRTPTNYFIVNLAMADLLLSFTVLPFSAALEVLGYWVLGRIFCDIWAAVDVLCCTASILSLCAISIDRYIGVRYSLQYPTLVTRRKAILALLSVWVLSTVISIGPLLGWKEPAPNDDKECGVTEEPFYALFSSLGSFYIPLAVILVMYCRVYIVAKRTTKNLEAGVMKEMSNSKELTLRIHSKNFHEDTLSSTKAKGHNPRSSIAVKLFKFSREKKAAKTLGIVVGMFILCWLPFFIALPLGSLFSTLKPPDAVFKVVFWLGYFNSCLNPIIYPCSSKEFKRAFVRILGCQCRGRGRRRRRRRRRLGGCAYTYRPWTRGGSLERSQSRKDSLDDSGSCLSGSQRTLPSASPSPGYLGRGAPPPVELCAFPEWKAPGALLSLPAPEPPGRRGRHDSGPLFTFKLLTEPESPGTDGGASNGGCEAAADVANGQPGFKSNMPLAPGQF [ADRA1B] | 6200 ± 240 | 
6 | MNPENWTQVTSFVLLGFPSSHLIQFLVFLGLMVTYIVTATGKLLIIVLSWIDQRLHIQMYFFLRNFSFLELLLVTVVVPKMLVVILTGDHTISFVSCIIQSYLYFFLGTTDFFLLAVMSLDRYLAICRPLRYETLMNGHVCSQLVLASWLAGFLWVLCPTVLMASLPFCGPNGIDHFFRDSWPLLRLSCGDTHLLKLVAFMLSTLVLLGSLALTSVSYACILATVLRAPTAAERRKAFSTCASHLTVVVIIYGSSIFLYIRMSEAQSKLLNKGASVLSCIITPLLNPFIFTLRNDKVQQALREALGWPRLTAVMKLRVTSQRK [OR6T1] |  | plasma membrane surface immunostaining intensity (GPCR class: A (Olfactory)): 112 ± 19
7 | MNPPSGPRVPPSPTQEPSCMATPAPPSWWDSSQSSISSLGRLPSISPTAPGTWAAAWVPLPTVDVPDHAHYTLGTVILLVGLTGMLGNLTVIYTFCRSRSLRTPANMFIINLAVSDFLMSFTQAPVFFTSSLYKQWLFGETGCEFYAFCGALFGISSMITLTAIALDRYLVITRPLATFGVASKRRAAFVLLGVWLYALAWSLPPFFGWSAYVPEGLLTSCSWDYMSFTPAVRAYTMLLCCFVFFLPLLIIIYCYIFIFRAIRETGRALQTFGACKGNGESLWQRQRLQSECKMAKIMLLVILLFVLSWAPYSAVALVAFAGYAHVLTPYMSSVPAVIAKASAIHNPIIYAITHPKYRVAIAQHLPCLGVLLGVSRRHSRPYPSYRSTHRSTLTSHTSNLSWISIRRRQESLGSESEVGWTHMEAAAVWGAAQQANGRSLYGQGLEDLEAKAPPRPQGHEAETPGKTKGLIPSQDPRM [OPN4] | 519 ± 36 | 
8 | MNPTDIADTTLDESIYSNYYLYESIPKPCTKEGIKAFGELFLPPLYSLVFVFGLLGNSVVVLVLFKYKRLRSMTDVYLLNLAISDLLFVFSLPFWGYYAADQWVFGLGLCKMISWMYLVGFYSGIFFVMLMSIDRYLAIVHAVFSLRARTLTYGVITSLATWSVAVFASLPGFLFSTCYTERNHTYCKTKYSLNSTTWKVLSSLEINILGLVIPLGIMLFCYSMIIRTLQHCKNEKKNKAVKMIFAVVVLFLGFWTPYNIVLFLETLVELEVLQDCTFERYLDYAIQATETLAFVHCCLNPIIYFFLGEKFRKYILQLFKTCRGLFVLCQYCGLLQIYSADTPSSSYTQSTMDHDLHDAL [CCR4] | 186 ± 14 | 
9 | MNSENLTRAAVAPAEFVLLGITNRWDLRVALFLTCLPVYLVSLLGNMGMALLIRMDARLHTPMYFFLANLSLLDACYSSAIGPKMLVDLLLPRATIPYTACALQMFVFAGLADTECCLLAAMAYDRYVAIRNPLLYTTAMSQRLCLALLGASGLGGAVSAFVHTTLTFRLSFCRSRKINSFFCDIPPLLAISCSDTSLNELLLFAICGFIQTATVLAITVSYGFIAGAVIHMRSVEGSRRAASTGGSHLTAVAMMYGTLIFMYLRPSSSYALDTDKMASVFYTLVIPSLNPLIYSLRNKEVKEALRQTWSRFHCPGQGSQ [OR5C1] |  | plasma membrane surface immunostaining intensity (GPCR class: A (Olfactory)): 177 ± 14
10 | MNTSAPPAVSPNITVLAPGKGPWQVAFIGITTGLLSLATVTGNLLVLISFKVNTELKTVNNYFLLSLACADLIIGTFSMNLYTTYLLMGHWALGTLACDLWLALDYVASNASVMNLLLISFDRYFSVTRPLSYRAKRTPRRAALMIGLAWLVSFVLWAPAILFWQYLVGERTVLAGQCYIQFLSQPIITFGTAMAAFYLPVTVMCTLYWRIYRETENRARELAALQGSETPGKGGGSSSSSERSQPGAEGSPETPPGRCCRCCRAPRLLQAYSWKEEEEEDEGSMESLTSSEGEEPGSEVVIKMPMVDPEAQAPTKQPPRSSPNTVKRPTKKGRDRAGKGQKPRGKEQLAKRKTFSLVKEKKAARTLSAILLAFILTWTPYNIMVLVSTFCKDCVPETLWELGYWLCYVNSTINPMCYALCNKAFRDTFRLLLLCRWDKRRWRKIPKRPGSVHRTPSRQC [CHRM1] | 2530 ± 130 | 
11 | MNVSGCPGAGNASQAGGGGGWHPEAVIVPLLFALIFLVGTVGNTLVLAVLLRGGQAVSTTNLFILNLGVADLCFILCCVPFQATIYTLDGWVFGSLLCKAVHFLIFLTMHASSFTLAAVSLDRYLAIRYPLHSRELRTPRNALAAIGLIWGLSLLFSGPYLSYYRQSQLANLTVCHPAWSAPRRRAMDICTFVFSYLLPVLVLGLTYARTLRYLWRAVDPVAAGSGARRAKRKVTRMILIVAALFCLCWMPHHALILCVWFGQFPLTRATYALRILSHLVSYANSCVNPIVYALVSKHFRKGFRTICAGLLGRAPGRASGRVCAAARGTHSGSVLERESSDLLHMSEAAGALRPCPGASQPCILEPCPGPSWQGPKAGDSILTVDVA [GALR2] | 2060 ± 420 | 
